Assay results published in PMC2796330 (Molecular cell, 2009).
Where no end group is shown, it is not given here. [ ]: non-standard residue; d: D form. pT = C[C@@H](OP(=O)(O)O)[C@H](N)C(=O)O

Legend:
[1] = target: recombinant Nedd4L WW2 domain; assay: ITC
[2] = target: Smurf1 WW2 domain; assay: ITC
Smurf1 WW2 domain, sequence (Q9HCE7 whole entry, the tested form may be a part): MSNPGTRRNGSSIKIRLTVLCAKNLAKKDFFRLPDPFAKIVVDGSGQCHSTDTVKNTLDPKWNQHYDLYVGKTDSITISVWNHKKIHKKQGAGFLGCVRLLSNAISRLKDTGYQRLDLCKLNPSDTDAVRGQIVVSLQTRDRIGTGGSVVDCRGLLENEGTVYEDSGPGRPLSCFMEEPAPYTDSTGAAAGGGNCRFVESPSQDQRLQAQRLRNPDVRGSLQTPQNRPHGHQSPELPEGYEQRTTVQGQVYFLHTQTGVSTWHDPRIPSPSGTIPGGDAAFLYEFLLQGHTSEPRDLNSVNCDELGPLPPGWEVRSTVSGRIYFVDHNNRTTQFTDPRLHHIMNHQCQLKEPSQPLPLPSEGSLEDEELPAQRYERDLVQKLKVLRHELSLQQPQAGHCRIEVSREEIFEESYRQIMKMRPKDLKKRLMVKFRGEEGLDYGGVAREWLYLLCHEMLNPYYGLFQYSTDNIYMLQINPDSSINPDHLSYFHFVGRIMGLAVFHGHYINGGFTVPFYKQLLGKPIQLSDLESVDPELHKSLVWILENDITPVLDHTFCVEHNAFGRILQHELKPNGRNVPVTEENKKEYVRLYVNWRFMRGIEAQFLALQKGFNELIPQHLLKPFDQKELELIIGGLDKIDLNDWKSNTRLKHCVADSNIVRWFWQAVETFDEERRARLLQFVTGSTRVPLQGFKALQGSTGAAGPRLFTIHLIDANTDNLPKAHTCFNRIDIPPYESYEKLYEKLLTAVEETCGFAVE

recombinant Nedd4L WW2 domain, sequence (Q96PU5 whole entry, the tested form may be a part): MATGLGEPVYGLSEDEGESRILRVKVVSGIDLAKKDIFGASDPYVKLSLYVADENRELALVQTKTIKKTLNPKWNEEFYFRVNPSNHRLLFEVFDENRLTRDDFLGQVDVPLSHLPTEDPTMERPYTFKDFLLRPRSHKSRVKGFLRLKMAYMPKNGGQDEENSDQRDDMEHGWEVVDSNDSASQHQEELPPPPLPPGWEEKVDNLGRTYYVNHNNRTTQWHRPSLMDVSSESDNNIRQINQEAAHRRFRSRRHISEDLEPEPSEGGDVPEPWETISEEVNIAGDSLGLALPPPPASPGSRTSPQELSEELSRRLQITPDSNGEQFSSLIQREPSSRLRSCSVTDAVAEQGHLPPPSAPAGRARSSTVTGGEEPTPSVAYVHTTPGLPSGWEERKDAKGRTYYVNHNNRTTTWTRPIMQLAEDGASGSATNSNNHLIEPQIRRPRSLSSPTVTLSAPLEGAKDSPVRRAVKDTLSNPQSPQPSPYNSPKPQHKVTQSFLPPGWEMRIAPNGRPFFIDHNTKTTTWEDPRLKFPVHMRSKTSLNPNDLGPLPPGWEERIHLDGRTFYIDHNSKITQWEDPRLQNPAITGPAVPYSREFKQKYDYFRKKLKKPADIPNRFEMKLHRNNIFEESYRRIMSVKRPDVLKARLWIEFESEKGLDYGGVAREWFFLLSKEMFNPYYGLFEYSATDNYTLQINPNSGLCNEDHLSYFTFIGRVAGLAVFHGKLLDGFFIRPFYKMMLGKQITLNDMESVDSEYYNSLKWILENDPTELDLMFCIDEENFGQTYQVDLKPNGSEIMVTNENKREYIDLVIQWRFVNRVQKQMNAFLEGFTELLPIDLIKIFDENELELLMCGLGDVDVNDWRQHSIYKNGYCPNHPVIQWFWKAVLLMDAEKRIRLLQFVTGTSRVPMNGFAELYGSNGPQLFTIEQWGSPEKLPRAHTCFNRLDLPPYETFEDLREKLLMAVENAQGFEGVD

Row | Kd [1] [µM] | Kd [2] [µM] | Binder
1 | 4.1 | 36 | IPE[pT]PPPGYLSED [Smad3 pT-PY motif peptide (phosphothreonine)]
2 | – | 32 | PADTPPPAYLPPE [Smad1 T-PY motif peptide]
3 | 7.8 | – | IPE[pT]PPPGYISED [Smad2 pT-PY motif peptide (phosphothreonine)]
